Test results published in the nanobody polyreactivity screen of Harvey et al. (2022).

test: yeast display, Sf9 membrane polyspecificity reagent, FACS + sequencing; frameworks hold sequencing errors
Procedure, shortened: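 A nanobody's polyreactivity label depends on the gate it was sorted from. Yeast display cells were stained with 10% biotinylated, detergent-solubilized Sf9 membrane reagent for 1 hour at 4 °C, enriched on streptavidin microbeads and sorted by FACS. The low and high (top ~1%) gates were set on anti-HA fluorescence for expression and streptavidin fluorescence for reagent binding.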

Sequence | polyreactivity (PSR sort gate)
QDQLGESGGGLVQAGGSLRLICAASGRIFPYYAMAWYRQAAGKEREFVASITKRRGSTSYADSVKGRFTISRDNAKNTVYLQMHSLKPEDTAVYYCAARRGSGMVTYYGGDYWGQGTQVTVSS | low polyreactivity
QDQLGESGGGLVQAGGSLRLSCPASGFTVSNNVMGWSRQAPGKERELVADITWSGDGTYYADSVKGRFTISRDNAKKSVYLQMNSLKTEDTAVYYCNARYGKEYDYWGQGTQVTVSS | low polyreactivity
QDQLLESGGGLVQAGGSLLLSCAASGSTFFDYAMGWYRQAPGKERELVAVISDGGTTTYADSVKGRFTISRDNAKNTVYLQMNSLKPEDTAVYYCAAENQDGLLVILGGYGYWGQGTQVTVSS | low polyreactivity
QDQLLETGGGLVQAGGSLRLSCAASGSTSLVYAMGWYRQAPGKERELVADISWSGGSTYYTDSVKGRFTISRDNAKNTVYLQMNSLKPEDTAVYYCNGGTYSTSVPYPYKYWGQGTQVTVSS | high polyreactivity
QDQLVDSGGGIVQAGGILSLSCAASGRNIIYNAMGWYRQAPGKERELVAAINRSGVSTHYADSVKGRFTISRDNAKNTVYLQMTSLKPEDTAVYYCASTVYGARSYDYWGQGTQVTLSS | low polyreactivity
QDQLVDSGGGLLQAGGSLRLSCAASGSTFHPYAMGWYRQAPGKERELVAAITFSGGSTYADSVKGRFTISRDNAKNTVYIQMNSLKPEDTAVYYCAAEWWYWRGWRDYWGQGTQVTVSS | low polyreactivity
QDQLVDSGGGLLQAGGSLRLSCAASGSTLSKYAMGWNRQAPGKERELVAAISQRGGSTYYADSVKGRFTISRDNAKYTVYLQMNSLKPEDTAVSYCNALQRRYGYWGQGTQVTESS | high polyreactivity
QDQLVDSGGGLVKAGGNLRLSCPASGSTFDYNTMGWNIQEPGKESEMVAVITASGGSTYYADSVKGRFTISRDNAKNTVYLQMNSLKPEDTAVYYCAKDLYVSYYIGTCYYYWGQGTQVTVSS | low polyreactivity
QDQLVDSGGGLVQAGGSLRLSCAASGFNFGYYAMGWYRQAPRKERELVAAISRSGGRTYYADSVKGRFTISRDNAKNTVYLQMNILNPEDTAVYYCNARHYLSAYDYWGQGTQVTVSS | high polyreactivity
QDQLVDSGGGLVQAGGSLRLSCAASGRTFTVYAMGWYRQAPGKERELVAAISGSSGSTDYADSVKGRFTISRDNAKNTVYLQMNSLKPEDTAVYYCAKASSATRYVQLRQDYDYWGQGTQVTVSS | low polyreactivity
QDQLVESAGGLLQAGGSLRLSCAASGSTFKYNAMGWYRQAPGKERELVDSITRGGNTNYADSVKGRFTISRDNAKNTVYLLMNSLKTEDTAFYYCAAQLMRDLRSPYSYNYWGQGTQVTVSS | low polyreactivity
QDQLVESAGGLVQAGGSLRLICAASGSTFALYAMGWYRQAAGTERELVAAISRSGGRTYYADSVKGRFTISRDNPKNTVYLQMNSLKPDDTAVYYCAADFSRPGGLDESWGQGTQVTVSS | high polyreactivity
QDQLVESAGGLVQAGGSLRLSCAASGRIFVFNAMGWYIQAPGKERELVAGINRGASTYYADSVKGRFTISRDNAKNTVYFQMNSLKPEDTAVYYCAADNFWWTKLYYWGQGTQVTVSS | high polyreactivity
QDQLVESAGGLVQAGGSLRLSCAASVITFVRYVMGWYRQAPGKEREFVARIRWRGGSTNYADSVKGRFTISRDNAKNTVYLQMNSLKPEDTAVYYCNAVRRASSGYDYWGQGTQVTVSS | high polyreactivity
QDQLVESCGGLVQAGGSHRLTCAASGGTSWIYAMGWYRQAPRKARELVAVITWSGGSTYYADSVKGRFTISRDTAKNTVYLQMNSLKPEDTAVYYCATDYTGKWKDHYYYWGQGTQVTVSS | low polyreactivity
QDQLVESCGGLVQAGGSLRLSCAASGRTFYRYAMGWYIQAPGKERELVADITRRVGITHYADSVKGRFTISRDYAKNTVYLKMNSLKPEDTAVYYCAARKYGSRYRLKYDYWGQGTQVTVSS | high polyreactivity
QDQLVESGAGLVQAGGSLRLSCAASGFNFYRYAMGWYREAPGKERELVATISVRGGTYYADSVKGRFTISRDNAKNTVYLQMNSLKPEDTAVYYCAARVHLWGDTLKFVRVGYWGQGTQVTVSS | low polyreactivity
QDQLVESGGCLVQAGGSLRLSCAASGRIIIGYVMGWYRQAPVKERELVATISYSGGSTYADSVKGRFTISRDNAKNTVYLLMNSLKPEDTAVYYCNALFAGHKYYTVTSKYDYWGQGTQVTLSS | high polyreactivity
QDQLVESGGGFVQAGGSLRLSCAASGITFPLYALGRYRQPPGKERELVAAISRNGGRTYYADSVKVRFTMSRDNAKNTVYLQMNSMKPEDTAVYYCAKVSRGSVSSPPDDYWGQGTQVTVSS | high polyreactivity
QDQLVESGGGFVQAGGSLRLSCAASGLTFWYYAMGWYRQATGKEVELVAANDWSGASTYYADSVKGRFTISRDNAKNTVYLQMISLQPEDTAVYYCNTVYYIGDDYWGQGTQVTVSS | high polyreactivity
QDQLVESGGGFVQARGSLRLSCAACGFIFYANAMGWYRQAPGKERELVAGISWSGTSTYYADSVKGRFTISRDNAKNTVYLQMNSLKPEDTAVYYCNRVFYHFDVDRYDYWGQGTQVTVSS | low polyreactivity
QDQLVESGGGIVQAGGILRLSCASSGFIFRGYAMGWYRQAPGKEWELVAAINSGDSTNYADSVKGRFTISRDNAKNTVSLQMNSLKREDTAVYYCAASIYAALNGGEGYDYWGQGTQVTVSS | low polyreactivity

Sequence | polyreactivity (PSR sort gate)
QDQLVESGGGIVQAGGRLRLSCAASGSIFRYYAMGWYRQAPGKERDLVAAINWDGGSTYYADSVKGRFTISRDNAKNTVYLQMNSLKPEDTAVYYCATTSRVYAYGYRTSNYWGQGTQVTVSS | high polyreactivity
QDQLVESGGGIVQAGGSLRLSCAASGRNFILNAMGLYRQAPGKERELVAAITWSGGGTYYADSVKGRFTISRDNAKNTVYLQMNSLKASDSAVYYCNRPAAVGEEDYWGQGTQVTVSS | low polyreactivity
QDQLVESGGGIVQAGGSLRLSCAASGSTFPIYAMGWYRQAPGKERELVADITSTGSTDYADSVKGRFTISRDNAKNTVYLQMNSLKPEDTAVYYCAADYYYSAYFWSDFDYWGQGTQVTVSS | high polyreactivity
QDQLVESGGGIVQAGGTLRLSCAASGRTIGGYDMGWDRQAPGKERQLVAAIRTGGRTNYADSVKGRFTISRDNAKNTVYLQLNSLKPEDTAVYYCNARRRIADPRAGIYDYCGQGTQVTVSS | high polyreactivity
QDQLVESGGGLDQAGGSLRLSCAASGNTFWPYAMGWYRQAPGKESEFVAAITFRGGSTYYADSVKGRFTISRDNAKNTVYLQMNSLKPEDTAVYYCNAERGVWSGYFGYDYWGQGTQVTVSS | low polyreactivity
QDQLVESGGGLDQAGGSLRLSCAASGRIFKLYAMGWYRQAPGKERELVAAISKSGGNTYADSVKGRFTISRDNAKNTVYLQMNSLKPEETAVYYCAATVQSTSDPFDYWGQGTQVTVSS | low polyreactivity
QDQLVESGGGLFKAGGSLRLSCAASGFIFSHYAMGWYRQAPGKERELVADISRSGTSTYYADSVTGRFTISRDNAKNTVYLQMNSLKPEDTAVYYFAKEYFFRGFNYRYDYWGQVTQVTVSS | high polyreactivity
QDQLVESGGGLVHAGGSLRISCAASGRILYAYPMGWYRQAPGKERELVAAINWSGGSTYYADSVKGRFTISRDNAKNTVYLQMNSLKPEDTAVYYCNRVLDPTNKYYYWGQGTQVTVSS | high polyreactivity
QDQLVESGGGLVPAVGSLRLTCAASGYTFWDYTMGLYRQAPGKERELGAAMSSSGSSTYYADSVKGRFTISRDNAKNTVYLQMNSLKPEDNAVYYCAAYSRRQWKYDYWGQGTHVTVSS | high polyreactivity
QDQLVESGGGLVQAGASLRLICAASGFIFPSYAMGWYRKAPGKERELVAAISWTGGTYYADSVKGRFTISRDNAKNTVYLQMNSLKPEDTAVYYGAVRYKRKGSGYRTNAYDYWGQGTQVSVSS | high polyreactivity
QDQLVESGGGLVQAGASLRLSCADSGFTFTTNAMGWYRHAPGKERELVAAISFSGGTTYYADSVKGRFTISRDNAKNTVYLQMNRLKPEDTAVYYCAAQPGQAWWSTDHDDYWGQGTQVTVSS | low polyreactivity
QDQLVESGGGLVQAGCSLRLTCAASGSTFTSNAMGWYRQAPGKERYLVASISGSVGRTYYADSVKGRFTISRDNAKNTVYLQMNSLKPEDTAVYYCNDESRNLYSTQFDYWGQGTQVTVSS | low polyreactivity
QDQLVESGGGLVQAGGRLRLSCAASGYIFAYNAMGRDRQAPGKERELVAAISYSGGRTYYAYSVKGRFTISRYIAKNTVYLQMKSLKPEVTAVYYCAAPFRVGAGPATYDYWGQGTQVTVSS | high polyreactivity
QDQLVESGGGLVQAGGSHRLSCAASGLTLTDNALGWYRQAPGKERELVAAISQSGGRTSYADSVKGRFTISRDNAKNTVYLQMNSLKPEDTAVYYCNTRRGSVAKYGYWGQGTQVTVSS | high polyreactivity
QDQLVESGGGLVQAGGSLGLRCAATGSTFTYYTMGWYRQAAGKERELVAAISRTTGSTYYADSVKGRFTISRDNAKNTVYLQMNSLKPEDTAVYYCAAQSYKILLYFIGTAGDGYWGQGTQVTVSS | low polyreactivity
QDQLVESGGGLVQAGGSLLLSCAASGSTFYDYVMGWYRQAPGKERELVADISSGGGTNYADSLKGRFTISRDNAKNTVYLQMNSLKPEDTAVYYCAAYRYFFWYEFVSWGQGTQVTVSS | high polyreactivity
QDQLVESGGGLVQAGGSLPLSCAASANIFPLYAMGWYRQAPGKERELVAAITWSTTSTYYADSVKGRFTISRDNAKNTVYLQMNSLKPEDTAVYYCKAKTDESYYYSDYDYWVQGTQVTVSS | low polyreactivity
QDQLVESGGGLVQAGGSLRISCAASGGTFKSYAMGWYREAPGKERELVATITRDGRTNYADSVKGRFTISRDNAKNTVYLQMNSLKPEDTAVYYCNADYWSVWIALEFTVDYWGQGTQVTVSS | low polyreactivity
QDQLVESGGGLVQAGGSLRISCAASGSIFAWYAMAWYRESPGKERELVATITWSGGSTYYADSVKGRFTISRDNAKNTVYLQMNSLKPEDTAVYYCAAEVVGIWYDLWYQGDYWGQGTQVTVSS | low polyreactivity
QDQLVESGGGLVQAGGSLRISCAASGSTFIYNAMGWYRQAPGKERELVATITGRGSTYYAYSVKGRFTISRDNAKNTVYLQLNSLKPEDTAVYYCAATIFNSFYWRYGYWGQGSQVTVSS | low polyreactivity
QDQLVESGGGLVQAGGSLRITCAASGSIFSWYTMGRYRQAPGKEMELVAAISGCGSRTYYADSVKGRFTISRDIEKNTVYLQMNSLKPEDTALYYCNTVNTWSVYYAYDYWGQGTQVTVSS | high polyreactivity
